Substrate in the series: O=C(O)C(=O)Cc1ccc(O)cc1
The experiment in a line: purified protein, by the assay type. The settings on record: other: pH 7.0, apparent, substrate inhibition model, 20.0 °C.

The results in this text go back to patent US10619138B2, “Herbicide-resistant hydroxyphenylpyruvate dioxygenases” (BASF SE, priority 2013, dated 2020).

B1: Arabidopsis thaliana HPPD, wild type, SEQ ID NO: 42 (Arabidopsis thaliana) (protein)
chain: MGHQNAAVSENQNHDDGAASSPGFKLVGFSKFVRKNPKSDKFKVKRFHHIEFWCGDATNVARRFSWGLGMRFSAKSDLSTGNMVHASYLLTSGDLRFLFTAPYSPSLSAGEIKPTTTASIPSFDHGSCRSFFSSHGLGVRAVAIEVEDAESAFSISVANGAIPSSPPIVLNEAVTIAEVKLYGDVVLRYVSYKAEDTEKSEFLPGFERVEDASSFPLDYGIRRLDHAVGNVPELGPALTYVAGFTGFHQFAEFTADDVGTAESGLNSAVLASNDEMVLLPINEPVHGTKRKSQIQTYLEHNEGAGLQHLALMSEDIFRTLREMRKRSSIGGFDFMPSPPPTYYQNLKKRVGDVLSDDQIKECEELGILVDRDDQGTLLQIFTKPLGDRPTIFIEIIQRVGCMMKDEEGKAYQSGGCGGFGKGNFSELFKSIEEYEKTLEAKQLVG
Turning to B1, the Km (usually the concentration of substrate that gives half-maximal velocity) is 13 µM; the kcat (in general, the number of substrate molecules converted per active site and unit of time at saturation) is 12.9 s⁻¹; the kcat/Km (in general, the turnover number divided by the Michaelis constant) amounted to 1e+06 M⁻¹ s⁻¹.
